Test results taken from paper PMC12324679.

Legend:
PuPuf4 (Pythium ultimum) = assay: MST; conditions: MST: 50 mM Tris pH 7.5, 150 mM NaCl, 10 mM MgCl2, 0.05% Tween 20, 25 C; EMSA: Beyotime EMSA/Gel-Shift Binding Buffer, 50 ng RNA, 25 C 30 min, 1% agarose gel
[1] = test system: PuPuf4 R111A F147A K368A (Pythium ultimum); assay: MST; conditions: MST: 50 mM Tris pH 7.5, 150 mM NaCl, 10 mM MgCl2, 0.05% Tween 20, 25 C; EMSA: Beyotime EMSA/Gel-Shift Binding Buffer, 50 ng RNA, 25 C 30 min, 1% agarose gel

GCCCAGUGCUCUGAAUGUCAAAGUGAAGAGAUUCACCAAGCGGCGGGUAAACGCG [H68 rRNA]
Kd (PuPuf4 (Pythium ultimum)): 240 nM | Kd [1]: 620 nM
